Several values for one entry are separate records, joined by “and”; a condition that tells them apart may be missing. Equal entries are not always repeated.
B1: CC chemokine ligand 18 (CCL18) (ligand, human, UniProt P55774 21-89, looked up)
chain: AQVGTNKELCCLVYTSWQIPQKFIVDYSETSPQCPKPGVILLTKRGRQICADPNKKWVQKYISDLKLNA

Columns and labels:
[1] = target: T1, CCR3 (UniProt P51677 1-355); test: cell-based or functional assay
T1 sequence (looked up): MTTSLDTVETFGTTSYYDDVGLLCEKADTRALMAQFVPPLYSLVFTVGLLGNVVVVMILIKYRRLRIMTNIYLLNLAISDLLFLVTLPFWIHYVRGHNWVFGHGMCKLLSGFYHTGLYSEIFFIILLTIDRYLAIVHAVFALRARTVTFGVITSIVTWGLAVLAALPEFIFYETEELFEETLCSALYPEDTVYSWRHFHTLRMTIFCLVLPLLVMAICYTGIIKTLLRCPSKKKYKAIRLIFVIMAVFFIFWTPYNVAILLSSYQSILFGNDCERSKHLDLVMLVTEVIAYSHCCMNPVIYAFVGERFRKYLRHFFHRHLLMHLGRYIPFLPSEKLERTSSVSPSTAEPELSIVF

[2] = target: T2, Radiolabeled CCL18 (125I-CCL18) (human, UniProt P55774 21-89, 125I label (radiolabeled; residue not stated)); test: radioligand binding; equilibrium competition: increasing concentration of Evasin against 125I-CCL18 binding to L1.2/CCR3 transfectants; Evasin binds the tracer; settings: both partners purified
T2 construct: CCL18, radioiodinated; also called tracer; source: bought: Anawa
T2 sequence (looked up): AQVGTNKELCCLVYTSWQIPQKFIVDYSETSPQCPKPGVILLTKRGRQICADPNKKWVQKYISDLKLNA

[3] = target: B1; test: SEC; 500 ug CCL18 and an equimolar amount of Evasin incubated 45 min at RT in PBS, Superdex 75 in PBS, 1.5 ml/min, calibrated column; fractions on silver stained SDS-PAGE; CCL18 and Evasins also run alone; settings: both partners purified
[4] = target: T1, CCR3; test: radioligand binding; equilibrium competition binding of 125I-CCL18 on L1.2/CCR3 transfectants, increasing concentration of unlabelled competitor; settings: one partner purified

In the case of B1, the “inhibition of CCL11-induced chemotaxis of L1.2/CCR3 transfectants by CCL18 previously incubated with a twofold molar excess of Evasin-3 (no effect of Evasin-3), IC50, n = 3” value [1] is reported as 446 nM, the “inhibition of CCL11-induced chemotaxis of L1.2/CCR3 transfectants by CCL18 with Evasin-3 as a control, IC50 of the experiment shown” value [1] is reported as 421 nM and the “inhibition of migration of L1.2/CCR3 transfectants to 1 nM CCL11 (blocks CCL11-CCR3), IC50 of the experiment shown” value [1] is reported as 557 nM. For the same binder, the “inhibition of the chemotactic response of L1.2/CCR3 transfectants induced by 1 nM CCL11 (blocks CCL11-CCR3), IC50, mean of n = 7” value [1] was 318 nM.

B2: Evasin-1 (natural protein)
chain: EDDEDYGDLGGCPFLVAENKTGYPTIVACKQDCNGTTETAPNGTRCFSIGDEGLRRMTANLPYDCPLGQCSNGDCIPKETYEVCYRRNWRDKKN
modifications: glycosylated (sites not given)
notes: source: produced as previously described (18, 19)
B2 was tested, and the IC50 [2] was 9.92 nM and 7.94 nM and the “stoichiometry N” value [3] was 1.

B3: Evasin-4 (natural protein)
chain: EVPQMTSSSAPDLEEEDDYTAYAPLTCYFTNSTLGLLAPPNCSVLCNSTTTWFNETSPNNASCLLTVDFLTQDAILQENQPYNCSVGHCDNGTCAGPPRHAQCW
modifications: glycosylated (sites not given)
notes: as for B2
For B3, the IC50 [2] was 0.015 nM and 0.03 nM and the “stoichiometry N” value [3] was 1.

B4: CCL11 (ligand)
chain: not shown
notes: chemokine CCL11; source: obtained from PeptroTech or produced as previously described (17)
For B4, the IC50 [4] was 4.99 nM.

Reference: PMC3711072, “The Activity of CCL18 is Principally Mediated through Interaction with Glycosaminoglycans” (Frontiers in Immunology, 2013)
